Test results published in PMC9482650, “Quantitative fragmentomics allow affinity mapping of interactomes” (Nature Communications, 2022).

How the values were obtained:
Test in all cases: holdup assay
Set-up in all cases: key: below the threshold = too weak to quantify, mostly under pKd 3.1 to 4
Settings in all cases: plain residues with an end cap or a label only (N-terminal biotin on a linker: ttds)
GIPC3, Q8TF64 = target: GIPC3, Q8TF64
INTU, Q9ULD6 = target: T1, INTU, Q9ULD6
T1 sequence (Q9ULD6 180-273, limits assumed, looked up): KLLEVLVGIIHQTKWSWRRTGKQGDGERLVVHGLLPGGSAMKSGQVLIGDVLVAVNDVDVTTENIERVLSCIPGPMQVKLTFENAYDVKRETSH

O00233 = target: O00233
O00560 = target: O00560
O15021 = target: O15021
O43166 = target: O43166
Q12923 = target: Q12923
Q13009 = target: Q13009
Q5TCQ9 = target: Q5TCQ9
Q70Z35 = target: Q70Z35
Q8IUC4 = target: Q8IUC4
Q8TB45 = target: Q8TB45
Q8TDM6 = target: Q8TDM6
Q8TEW0 = target: Q8TEW0
Q96FS4 = target: Q96FS4
Q96JB8 = target: Q96JB8
Q96JY6 = target: Q96JY6
Q96SB3 = target: Q96SB3
Q9H190 = target: Q9H190
Q9NR12 = target: Q9NR12
Q9P227 = target: Q9P227
Q9UMS6 = target: Q9UMS6
RGS12, O14924 = target: T2, RGS12, O14924
T2 sequence (O14924 17-108, limits assumed, looked up): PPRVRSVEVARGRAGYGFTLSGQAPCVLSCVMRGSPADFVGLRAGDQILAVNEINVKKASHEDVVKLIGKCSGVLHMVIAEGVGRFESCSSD

Measured: pKd

Sequence of GIPC3, Q8TF64 (Q8TF64 107-202): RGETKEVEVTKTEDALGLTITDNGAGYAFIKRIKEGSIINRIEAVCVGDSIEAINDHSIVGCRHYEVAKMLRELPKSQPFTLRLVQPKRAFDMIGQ

NYWPGKETQL [SLCO1C1, Q9NYB5]
below the threshold: all assays above

DPLTPSRSQL [DGKK, Q5KSL6]
below the threshold: all assays above

IQREDQETAV [DGKZ, Q13574]
not listed: INTU, Q9ULD6
below the threshold: all other assays above
